Reference: US20090202531A1 (Novartis, published 2009)

Assays:
human FcγRIIIa-158F [1] = molecular target: T1, human FcγRIIIa-158F (human, UniProt P08637 17-208, limits assumed); assay: Biacore (SPR)
T1 construct: also called FcγRIIIa aa158F allele

human FcγRIIIa-158V = molecular target: T2, human FcγRIIIa-158V (human, UniProt P08637 17-208); assay: Biacore (SPR)
T2 construct: also called FcγRIIIa aa518V allele (sic); FcγRIIIa aa158V

human FcγRIIIa-158F [2] = molecular target: T1, human FcγRIIIa-158F; assay: Biacore (SPR); reference rituximab on the same allele

T1 sequence (P08637 17-208 limits assumed): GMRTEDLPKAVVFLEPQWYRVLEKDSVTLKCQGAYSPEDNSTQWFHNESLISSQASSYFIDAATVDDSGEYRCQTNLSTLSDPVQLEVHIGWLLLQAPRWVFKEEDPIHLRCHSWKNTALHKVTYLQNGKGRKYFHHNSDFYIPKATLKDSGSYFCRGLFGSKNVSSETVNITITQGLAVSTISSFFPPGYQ
T2 sequence (P08637 17-208 F176V): as the sequence (P08637 17-208 limits assumed) above, with F160V counted along it

Kd (human FcγRIIIa-158F [1]): 2800 nM | Kd (human FcγRIIIa-158V): 492 nM | fold higher affinity compared with rituximab (human FcγRIIIa-158F [2]): 4.6 fold
B1: monoclonal antibody CHIR-12.12 (antibody)
heavy: not shown
light: DIVMTQSPLSLTVTPGEPASISCRSSQSLLYSNGYNYLDWYLQKPGQSPQVLISLGSNRASGVPDRFSGSGSGTDFTLKISRVEAEDVGVYYCMQARQTPFTFGPGTKVDIRRTVAAPSVFIFPPSDEQLKSGTASVVCLLNNFYPREAKVQWKVDNALQSGNSQESVTEQDSKDSTYSLSSTLTLSKADYEKHKVYACEVTHQGLSSPVTKSFNRGEC
notes: Fully human anti-CD40 IgG1 kappa; also called CH12.12
